# According to PMC9177957 (Nucleic Acids Research, 2022):
# B1: GST-tagged full-length human ANP32A (natural protein)
# chain: MEMGRRIHLELRNRTPSDVKELVLDNSRSNEGKLEGLTDEFEELEFLSTINVGLTSIANLPKLNKLKKLELSDNRVSGGLEVLAEKCPNLTHLNLSGNKIKDLSTIEPLKKLENLKSLDLFNCEVTNLNDYRENVFKLLPQLTYLDGYDRDDKEAPDSDAEGYVEGLDDEEEDEDEEEYDEDAQVVEDEEDEDEEEEGEEEDVSGEEEEDEEGYNDGEVDDEEDEEELGEEERGQKRKREPEDEGEDDD
# notes: also called GST-huANP32A; huANP32A WT; source: E. coli, purified (Glutathione Sepharose, eluted with reduced glutathione); not shown: GST, N-terminal, kept
# B2: GST-tagged full-length human ANP32B (natural protein)
# chain: MDMKRRIHLELRNRTPAAVRELVLDNCKSNDGKIEGLTAEFVNLEFLSLINVGLISVSNLPKLPKLKKLELSENRIFGGLDMLAEKLPNLTHLNLSGNKLKDISTLEPLKKLECLKSLDLFNCEVTNLNDYRESVFKLLPQLTYLDGYDREDQEAPDSDAEVDGVDEEEEDEEGEDEEDEDDEDGEEEEFDEEDDEDEDVEGDEDDDEVSEEEEEFGLDEEDEDEDEDEEEEEGGKGEKRKRETDDEGEDD
# notes: also called GST-huANP32B; huANP32B WT; source: E. coli, purified (Glutathione Sepharose, eluted with reduced glutathione); not shown: GST, N-terminal, kept
# Biological target: T1, wildtype NP of influenza A/NT/60/1968 (H3N2) virus (influenza A/NT/60/1968 (H3N2) virus, UniProt P03467 1-498)
# T1 construct: not shown: GST, N-terminal, cleaved
# Experiment: pull-down
# Conditions: both partners purified
row,Binder,binding result
1,B1,binds
2,B2,binds
